# Measured values published in publication PMC8041799, “Reovirus directly engages integrin to recruit clathrin for entry into host cells” (Nature Communications, 2021).
# B1: T3SA+ core (complex)
# chain: MANVWGVRLADSLSSPTIETRTRHYTLRDFCSDLDAVAGKEPWRPLRNQRTNDIVAVQLFRPLQGLVLDTQFYGFPGIFSEWEQFIKEKLRVLKYEVLRIYPISNYNHERVNVFVANALVGAFLSNQAFYDLLPLLVINDTMINDLLGTGAALSQFFQSHGEVLEVAAGRKYLQMKNYSNDDDDPPLFAKDLSDYAKAFYSDTFETLDRFFWTHDSSAGVLVHYDKPTNGNHYILGTLTQMVSAPPHIINATDALLLESCLEQFAANVRARPAQPVARLDQCYHLRWGAQYVGEDSLTYRLGVLSLLATNGYQLARPIPKQLTNRWLSSFVSQVMSDGVNETPLWPQERYVQIAYDSPSVVDGATHYGYVRRNQLRLGMRVSALQSLSDTPAPIQWLPQYTIEQAAVDEGDLMVSRLTQLPLRPDYGSIWVGDALSYYVDYNRSHRVVLSSELPQLPDTYFDGDEQYGRSLFSLARKIGDRSLIKDTAVLKHAYQAIDPNTGKEYLRAGQSVAYFGASAGHSGADQPLVIEPWTQGKISGVPPPSSVRQFGYDVAKGAIVDLARPFPSGDYQFVYSDVDQVVDGHDDLSISSGLVESLLDSCMHATSPGGSFVMKINFPTRTVWHYIEQKILPNITSYMLIKPFVTNNVELFFVAFGVHQQSALTWTSGVYFFLVDHFYRYETLSTISRQLPSFGYVDDGSSVTGIEMISLENPGFSNMTQAARVGISGLCANVGNARKLISIHESHGARVLTITSRRSPASARRKARLRYLPLVDPRSLEVQARTILPSNPVLFDNVNGASPHVCLTMMYNFEVSSAVYDGDVVLDLGTGPEAKILELIPPTSPVTCVDIRPTAQPSGCWNVRTTFLELDYLSDGWITGIRGDIVTCMLSLGAAAAGKSMTFDAAFQQLVKVLTKSTANVLLIQVNCPTDVIRTIKGYLEIDQTNKRYRFPKFGRDEPYSDMDSLERICRAAWPNCSITWVPLSYDLRWTKLALLESTTLSSASVRIAELMYKYMPVMRIDIHGLPMEKQGNFIVGQNCSLTIPGFNAQDVFNCYFNSALAFSTEDVNSAMIPQVTAQFDANKGEWSLDMVFSDAGIYTMQALVGSNANPVSLGSFVVDSPDVDITDAWPAQLDFTIAGTDVDITVNPYYRLMAFVRIDGQWQIANPDKFQFFSSSTGTLVMNVKLDIADRYLLYYIRDVQSRDVGFYIQHPLQLLNTITLPTNEDLFLSAPDMREWAVKESGNTICILNSQGFVPPQDWDVLTDTISWSPSLPTYVVPPGDYTLTPL
# How the values were obtained:
# α2β1 integrin [1] = target: α2β1 integrin (UniProt P17301); assay: single-virus force spectroscopy (FD-curve-based AFM); virus particle on the AFM tip through a PEG27 linker; α2β1 integrin coupled by NHS/EDC to a gold surface; virion-storage buffer (150 mM NaCl, 15 mM MgCl2, 10 mM Tris pH 7.4) with 2 mM Mn2+; ~25 °C; koff from a Bell-Evans fit, kon from BF against contact time, KD = koff/kon
# Sequence of α2β1 integrin (UniProt P17301) (P17301 30-1132, chain 1 of 2): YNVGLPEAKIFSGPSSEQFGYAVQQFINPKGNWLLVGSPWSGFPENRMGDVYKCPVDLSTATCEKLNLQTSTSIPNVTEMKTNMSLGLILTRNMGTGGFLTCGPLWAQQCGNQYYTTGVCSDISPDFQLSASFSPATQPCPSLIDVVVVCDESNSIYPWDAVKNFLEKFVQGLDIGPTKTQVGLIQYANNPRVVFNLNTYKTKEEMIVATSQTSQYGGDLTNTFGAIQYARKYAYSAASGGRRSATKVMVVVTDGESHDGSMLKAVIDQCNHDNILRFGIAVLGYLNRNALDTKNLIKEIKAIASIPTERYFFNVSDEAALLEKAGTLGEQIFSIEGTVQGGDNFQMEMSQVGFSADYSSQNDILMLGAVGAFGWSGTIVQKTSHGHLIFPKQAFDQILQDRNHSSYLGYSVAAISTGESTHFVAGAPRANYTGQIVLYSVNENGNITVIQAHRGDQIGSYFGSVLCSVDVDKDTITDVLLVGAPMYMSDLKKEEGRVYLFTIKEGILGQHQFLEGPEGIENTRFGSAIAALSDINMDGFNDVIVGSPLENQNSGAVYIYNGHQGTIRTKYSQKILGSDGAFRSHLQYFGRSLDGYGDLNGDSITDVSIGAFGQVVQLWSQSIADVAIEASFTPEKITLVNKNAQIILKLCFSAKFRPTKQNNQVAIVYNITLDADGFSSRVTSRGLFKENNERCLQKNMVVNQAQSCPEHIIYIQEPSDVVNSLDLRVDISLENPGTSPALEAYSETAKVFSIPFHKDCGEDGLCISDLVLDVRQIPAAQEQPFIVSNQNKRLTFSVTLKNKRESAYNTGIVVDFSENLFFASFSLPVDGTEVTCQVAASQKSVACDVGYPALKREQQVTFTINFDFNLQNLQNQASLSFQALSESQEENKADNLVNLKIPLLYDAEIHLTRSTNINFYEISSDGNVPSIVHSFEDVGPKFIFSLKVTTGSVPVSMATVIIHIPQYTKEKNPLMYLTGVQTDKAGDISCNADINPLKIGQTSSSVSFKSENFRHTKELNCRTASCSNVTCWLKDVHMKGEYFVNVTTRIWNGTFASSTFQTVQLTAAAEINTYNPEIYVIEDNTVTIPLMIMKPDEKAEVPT
# Sequence of α2β1 integrin (UniProt P17301) (P05556 21-728, chain 2 of 2, further chain): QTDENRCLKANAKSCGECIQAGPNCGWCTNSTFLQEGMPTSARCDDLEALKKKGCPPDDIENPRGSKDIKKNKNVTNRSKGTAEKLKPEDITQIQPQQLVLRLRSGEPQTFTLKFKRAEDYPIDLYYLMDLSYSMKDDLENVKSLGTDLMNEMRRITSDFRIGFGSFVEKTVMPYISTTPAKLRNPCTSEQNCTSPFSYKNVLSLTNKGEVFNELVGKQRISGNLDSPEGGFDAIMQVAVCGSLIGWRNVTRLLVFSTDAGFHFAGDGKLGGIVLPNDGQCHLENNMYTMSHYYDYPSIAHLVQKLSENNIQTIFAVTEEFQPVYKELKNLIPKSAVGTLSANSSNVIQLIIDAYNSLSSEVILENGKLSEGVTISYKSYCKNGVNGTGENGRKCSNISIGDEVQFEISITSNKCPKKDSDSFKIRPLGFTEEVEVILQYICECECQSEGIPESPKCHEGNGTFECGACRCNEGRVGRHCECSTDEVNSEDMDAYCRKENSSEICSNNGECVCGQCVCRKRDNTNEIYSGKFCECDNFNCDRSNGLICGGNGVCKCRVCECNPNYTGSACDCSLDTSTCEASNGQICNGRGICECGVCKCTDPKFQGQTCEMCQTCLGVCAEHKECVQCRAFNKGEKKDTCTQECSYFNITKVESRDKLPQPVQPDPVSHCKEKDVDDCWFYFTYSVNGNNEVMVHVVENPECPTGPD
# [2] = target: β1 integrin on living Lec2 cells (Chinese hamster (endogenous in Lec2)); assay: single-virus force spectroscopy (FD-curve-based AFM); virion on the AFM tip; living Lec2 cells, PeakForce QNM mode; with Ca2+ (concentration on cells not stated)
# [3] = target: β1 integrin on living Lec2 cells (Chinese hamster (endogenous in Lec2)); assay: single-virus force spectroscopy (FD-curve-based AFM); virion on the AFM tip; living Lec2 cells, PeakForce QNM mode, cell culture conditions; 0.5 mM Mn2+
# α2β1 integrin [4] = target: α2β1 integrin (UniProt P17301); assay: BLI; as a11, virion-storage buffer (15 mM Mg2+) without further cation
# α2β1 integrin [5] = target: α2β1 integrin (UniProt P17301); assay: single-virus force spectroscopy (FD-curve-based AFM); as a1 but with 2 mM Ca2+ instead of Mn2+
# α2β1 integrin [6] = target: α2β1 integrin (UniProt P17301); assay: single-virus force spectroscopy (FD-curve-based AFM); as a1 but 15 mM Mg2+ of the virion-storage buffer as only divalent cation
# [7] = target: β1 integrin on living Lec2 cells (Chinese hamster (endogenous in Lec2)); assay: single-virus force spectroscopy (FD-curve-based AFM); virion on the AFM tip; living Lec2 cells, PeakForce QNM mode; 0.5 mM Mg2+
# α2β1 integrin [8] = target: α2β1 integrin (UniProt P17301); assay: BLI; as a11, virion-storage buffer with 2 mM Ca2+
# α2β1 integrin [9] = target: α2β1 integrin (UniProt P17301); assay: BLI; α2β1 integrin immobilised on amine-reactive (AR2G) biosensors; T3SA+ virus ~10^13 particles/mL (16 nM in the fit) in virion-storage buffer with 2 mM Mn2+; room temperature; BLItz
# α2β1 integrin [10] = target: α2β1 integrin (UniProt P17301); assay: single-virus force spectroscopy (FD-curve-based AFM); as a1 (Mn2+), with 1 mM Neu5Ac
# α2β1 integrin [11] = target: T1, α2β1 integrin (UniProt P17301 30-1132; P05556 21-728); assay: single-virus force spectroscopy (FD-curve-based AFM); virus particle on the AFM tip through a PEG27 linker; α2β1 integrin coupled by NHS/EDC to a gold surface; virion-storage buffer (150 mM NaCl, 15 mM MgCl2, 10 mM Tris pH 7.4) with 2 mM Mn2+; ~25 °C; koff from a Bell-Evans fit, kon from BF against contact time, KD = koff/kon; conditions: both partners purified
# T1 construct: integrin α2 subunit; integrin β1 subunit; No catalogue number printed; The vendor's recombinant α2β1 is, as far as I recall, the human extracellular domains joined by acidic and basic tails; Coupled through amines (NHS/EDC) to gold surfaces or AR2G biosensors; also called α2β1 integrins; β1 integrins; source: bought: R&D Systems
# T1 sequence (P17301 30-1132, chain 1 of 2): as the sequence (P17301 30-1132, chain 1 of 2) above
# T1 sequence (P05556 21-728, chain 2 of 2): as the sequence (P05556 21-728, chain 2 of 2, further chain) above
molecule,measurement,setting,value
T3SA+ infectious subvirion particle (ISVP) (from UniProt P03528 1-455; P11077 1-708) (complex),BF (binding frequency),α2β1 integrin [1],4%
same,Kd,α2β1 integrin [1],0.105 µM
same,koff,α2β1 integrin [1],0.59 s⁻¹
same,kon,α2β1 integrin [1],5.62e+06 M⁻¹ s⁻¹
reovirus strain T3SA+ virion (from UniProt P03528 1-455; P11077 1-708; P07939 1-365) (complex),BF (binding frequency),α2β1 integrin [1],19%
same,Kd,α2β1 integrin [1],0.068 µM
same,koff,α2β1 integrin [1],0.4 s⁻¹
same,kon,α2β1 integrin [1],5.83e+06 M⁻¹ s⁻¹
same,BF (binding frequency),[2],1%
same,BF (binding frequency),[3],6%
same,Kd,α2β1 integrin [4],0.01 µM
same,BF (binding frequency),α2β1 integrin [5],1%
same,BF (binding frequency),α2β1 integrin [6],8%
same,Kd,α2β1 integrin [6],0.548 µM
same,koff,α2β1 integrin [6],2.1 s⁻¹
same,kon,α2β1 integrin [6],3.83e+06 M⁻¹ s⁻¹
same,BF (binding frequency),[7],3%
same,Kd,α2β1 integrin [8],0.085 µM
same,Kd,α2β1 integrin [9],0.002 µM
same,BF (binding frequency) with Neu5Ac,α2β1 integrin [10],6%
same,Kd,α2β1 integrin [10],0.116 µM
same,koff,α2β1 integrin [10],0.57 s⁻¹
same,kon,α2β1 integrin [10],4.92e+06 M⁻¹ s⁻¹
reovirus strain T3SA- virion (from UniProt P03528 1-455; P11077 1-708; P07939 1-365) (complex),BF (binding frequency),α2β1 integrin [1],7%
same,Kd,α2β1 integrin [1],0.103 µM
same,koff,α2β1 integrin [1],0.58 s⁻¹
same,kon,α2β1 integrin [1],5.62e+06 M⁻¹ s⁻¹
B1,Kd,α2β1 integrin [11],0.741 ± 0.317 µM
same,koff,α2β1 integrin [11],1.52 ± 0.4 s⁻¹
same,kon,α2β1 integrin [11],2.05e+06 ± 300000 M⁻¹ s⁻¹
